Measurements from patent publication US20180265843A1, “METHOD AND MEDIUM FOR NEURAL DIFFERENTIATION OF PLURIPOTENT CELLS” (INSERM 9INSTITUT NATIONAL DE LA SANTÉ ET DE LA RECHERCHE …, priority 2009, published 2018).

Legend:
[1] = test system: hES cells; test: FACS analysis of culture composition after differentiation with Noggin, SB431542 or both (NFS); format: cell-based, human; conditions: for differentiation of hES cells into an alternative fate than the neural lineage: 8 days treatment in N2B27; for proportion of neural cells, in words: 8 days treatment in N2B27, FACS
Text: A—FACS analyses of the composition of the whole culture after 8 days of differentiation in N2B27 alone or completed with Noggin, SB431542 or both (NFS). B—QPCR quantification of transcript specific of ES cells (Oct4 and Nanog) and early neural precursors (PAX6 and SOX1) for each condition of differentiation.
(§1) Human ES cell cultures or IFS cultures reaching 70-80% confluence were used to perform neural induction using NFS medium. Colonies were cut in pieces and manually detached in N2B27 or NFS medium completed with the Rock-inhibitor Y27632 (10 μM, Calbiochem). Clusters were transferred for 6 h in a low attachment Petri dish in order to completely starve them from the influence of the feeders. Finally, the hES or IFS suspension was plated in the same medium at a 1:1 ratio in culture dishes pre-coated with poly-ornithin and laminin (2 μg/ml, Sigma). The day after and then every other day, the medium was changed for NFS medium without Y27632.
Cells were collected using trypsin and fixed with 2% PFA for 15 min at 4° C. Permeabilization was performed using a PBS/0.1% saponin solution 10 min at RT. The same solution was then used to dilute primary antibodies as followed: mouse monoclonal OCT4 antibody linked to phycoerythrin (oct4-PE, 1:10°, BD Biosciences) and polyclonal rabbit anti-SOX2 antibody (1:500°, Chemicon). Cells were exposed to the mixture of primary antibodies 45 min at RT. An additional incubation with anti-rabbit secondary antibodies linked to AlexaFluo 488 was performed during 30 min at RT in order to detect SOX2 unconjugated antibodies. FACS analysis was performed using a Becton Dickinson FACScalibur™ flow cytometer.
We first monitored the efficiency of neural differentiation obtained only by removing from the culture medium any known instructive signals for alternative cell fates. We used N2B27 medium, a defined medium previously developed to induce neural differentiation of both mouse and human embryonic stem cells in an adherent monolayer culture system (Ying et al., 2003; Lowell et al., 2006). In order to analyzed consistently differentiation of several naïve hES cell lines, we have develop a protocol of systematic counting where cells were stained using antibodies against OCT4 and SOX2 transcription factors and then, analysed using FACS technology. Cells expressing both OCT4 and SOX2 were considered as embryonic stem cells whereas cells expressing only SOX2 were counted as neural cells. Cells totally negative or expressing only OCT4 were designated as differentiated into other type of tissues or layers. FACS analysis was performed on 4 hES cell lines (Hues 24, H9, VUB01, SA01), 8 days after platting on laminin in N2B27. Neural differentiation was obtained with all cell lines, but the efficiency of differentiation appeared highly variable depending of the cell line used, ranging from 33.84% for SA01 line to 82.33% for VUB01 line (FIG. 1-A).

[2] = test system: hES cells; test: Real-time qPCR of lineage marker transcripts after differentiation; format: cell-based, human; conditions: for expression of early neural markers PAX6 and SOX1: 8 days treatment in N2B27, qPCR; for neural crest cells (PAX3+/SOX10+) and keratinocytes (Cytokeratins 8 and 18), alternative fates from primitive ectoderm: 8 days treatment, qPCR and ICC
Description: as §1
Total RNA was isolated using the RNeasy Mini Kit (Qiagen) according to the manufacturer's instructions. A total of 500 ng of RNA were reverse transcribed into cDNA with SuperScript III (Invitrogen) using random primers. Real-time Q-PCR was performed with SYBR Green as a probe on a LC480 Real-Time system (Roche). Quantification was performed at a threshold detection line (Ct value). The Ct of each target gene was normalized against that of the cyclophilin as a housekeeping gene. The 2-ΔΔCt method was used to determine the relative level of expression of each gene. Data were expressed as mean±SEM. Primer sequences are listed in follow.

[3] = 8 days of differentiation, qPCR

Molecule	differentiation of hES cells into an alternative fate than the neural lineage [1]	proportion of neural cells, in words [1]	markers of primitive endoderm (SOX17, FOXA1) and primitive mesoderm (Brachyury, FLK1) [2, 3]	expression of early neural markers PAX6 and SOX1 [2]	neural crest cells (PAX3+/SOX10+) and keratinocytes (Cytokeratins 8 and 18), alternative fates from primitive ectoderm [2]	ES cells expressing Oct4 and NANOG remaining in the culture ([1]; after 8 days of treatment)	transcripts of extra-embryonic tissue markers CDX2 and Eomes [2, 3]
NC(=O)c1ccc(-c2nc(-c3ccc4c(c3)OCO4)c(-c3ccccn3)[nH]2)cc1 [SB431542, 4-(5-Benzol[1,3]dioxol-5-yl-4-pyrlidn-2-yl-1H-imidazol-2-yl)-benzamide hydrate, reference compound]	drastic differentiation of ES into an alternative fate	didn't increase robustly	not detected	didn't increase robustly	detected	–	–
Noggin: natural inhibitor of the BMP pathway; recombinant noggin from R&D Systems or Preprotech (protein, UniProt Q13253 28-232, looked up) Noggin: QHYLHIRPAPSDNLPLVDLIEHPDPIFDPKEKDLNETLLRSLLGGHYDPGFMATSPPEDRPGGGGGAAGGAEDLAELDQLLRQRPSGAMPSEIKGLEFSEGLAQGKKQRLSKKLRRKLQMWLWSQTFCPVLYAWNDLGSRFWPRYVKVGSCFSKRSCSVPEGMVCKPSKSVHLTVLRWRCQRRGGQRCGWIPIQYPIISECKCSC	complete blockage	slight increased	not detected	slight increased	not detected	a large number of ES cells	not detected
